According to paper PMC11612176 (The EMBO Journal, 2024):
Where two headings read alike, the source gives them in different places.

Key:
[1] = molecular target: RadA from S. pneumoniae (Strep-tagged, for cryoEM) (Streptococcus pneumoniae) (UniProt Q8DRP0); assay: cryo-EM structure; 7 uM RadA with 10 uM gapped hybrid DNA (combination CD) and 5 mM ATP-gamma-S, 30 min at 37 °C; Hepes 50 mM pH 8.0, NaCl 100 mM
[2] = molecular target: T1, ComM (Legionella pneumophila, UniProt A0A3A6V972); conditions: 5 mM AMPPNP, dsDNA/ssDNA hybrid, pH 8.0, 37 °C incubation; active site at interface between adjacent subunits
T1 construct: gene yifB

[3] = molecular target: ComM from L. pneumophila fused to a C-terminal His6-tag (Legionella pneumophila) (UniProt Q5ZXZ0); assay: cryo-EM structure
[4] = molecular target: ComM from L. pneumophila fused to a C-terminal His6-tag (Legionella pneumophila) (UniProt Q5ZXZ0); assay: cryo-EM structure; remark: listed apart in the source
[5] = molecular target: RadA R301A mutant from S. pneumoniae (Streptococcus pneumoniae) (UniProt Q8DRP0); assay: not stated; oligomeric state of RadA as purified for the biochemical assays

Question: “RadA from S. pneumoniae (Strep-tagged, for cryoEM) (from UniProt Q8DRP0 1-420) (enzyme)” was tested. Which stoichiometry N [1] did it give?
Answer: Its stoichiometry N is 6.

Question: How did the “cryoEM structure, 3.1 Å” value [2] turn out when `Nc1ncnc2c1ncn2[C@@H]1O[C@H](COP(=O)(O)OP(=O)(O)NP(=O)(O)O)[C@@H](O)[C@H]1O` [AMPPNP] was run?
Answer: Its value is “AMPPNP, which is located at the interface between two adjacent subunits”.

Question: For “ComM from L. pneumophila fused to a C-terminal His6-tag (from UniProt Q5ZXZ0 1-503) (enzyme)”, which stoichiometry N [3] is on record?
Answer: The stoichiometry N was 6.

Question: What about the stoichiometry N [4] of the same molecule?
Answer: The stoichiometry N was 12.

Question: For “RadA R301A mutant from S. pneumoniae (from UniProt Q8DRP0) (enzyme)”, which stoichiometry N [5] is on record?
Answer: Its stoichiometry N is 6.
